Measurements: publication PMC8993221, “Agl24 is an ancient archaeal homolog of the eukaryotic N-glycan chitobiose synthesis enzymes” (eLife, 2022)

Substrate: CC(=O)N[C@H]1[C@@H](OP(=O)(O)OP(=O)(O)OC[C@H]2O[C@@H](n3ccc(=O)[nH]c3=O)[C@H](O)[C@@H]2O)O[C@H](CO)[C@@H](O)[C@@H]1O
Assay: purified protein
Type: biochemical, Sulfolobus acidocaldarius
Details: 0.5 mM acceptor-2 (phenyl-O-C11H22-PP-GlcNAc), TBS with 5 mM MgCl2, pH 7.5, 60 °C, 10 hr, UDP-GlcNAc 0.5-12 mM

B1: Agl24 (Saci1262) (Sulfolobus acidocaldarius DSM 639) (protein)
chain: MIDNPLLIIASGGGHTGFARAIAEYLPFKPDFVIPENDRFSKDMLLDYARKLYYVKKGKDPGQGNIVLMRNFLKIIIESGKIPKYLATIATGSNHSLIPAMFQKIKGSALYVTESQDRIITRGKTVSVLSKFSRHVFLHWNEQKGLYDNGVVVGPIVEKPKYKSENKGYILVTTGSMGFKKLFDSLLNLRGNYKFVIQTGKVDPTPYIEKKPDWSFFSFDKDIERYIANAELVITHQGKTAMESVVMYGKPTIIVYNKDWKSATTKQDTILYSKILGATFLDDPSTWDSIKVLEDSIQNVRKPNQFEIGTPKLIDIILSELAEFLRE
notes: full length (327 residues), C-terminal TEV site-GFP-His8 fusion (pWaldo, plasmid pHD0499), tags kept; E. coli BL21 membranes, DDM-solubilised, Ni purified
- Km: 1370 ± 130 µM
